From the supplement of paper PMC10567573

B1: GALNT9 (parent)
chain: FTQSGPIVSRATGRCLEVEMSKDA
B2: RIT1 (parent)
chain: FHALVREIRRKEKEAVLAMEKKSK

Variants of: B1
Assay: protein stability index of a GFP-peptide fusion (GPS, HEK-293T) (PSI 1-6); higher = more stable
Conditions: c terminus: a fixed tail appended
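Further: lentivirally expressed fusions sorted by FACS into six bins by GFP to DsRed ratio, PSI derived from sequencing read proportions per bin multiplied by bin number.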

Protein stability index: each site, then its substitutions
C15: S 2.7; N 3.75; T 2.99; V 3.06; D 3.9; F 2.44; P 3.11; H 3.37; Q 3.14; M 2.78; L 4.19; K 2.53; Y 3.04; R 3.86; I 2.7
F1: L 2; D 3.51; K 3.17; G 3.15; E 4.08; Q 2.98; C 3.31; M 1.74; Y 2.03; W 2.3; H 2.93; N 3.15; I 2; P 1.87
R10: H 2.37; E 3.91; C 2.33; K 2.65; T 2.5; A 2.41; L 2.77; G 2.89; D 3.87; Q 3.02; N 2.01; V 2.6; I 1.53; S 3.5; P 2.49; M 1.48; F 1.41; Y 2.44
A11: F 1.06; R 1.65; T 2.24; P 2.31; G 1.95; D 3.15; M 1.73; K 1.83; S 1.77; I 1.67; Y 3.67
R14: H 2.06; P 3.1; N 2.88; Y 1.82; T 1.99; I 2.78; A 2.84; K 1.95; F 1.61; V 1.71; L 1.9; C 1.78; E 3.03; S 1.98
E19: D 2.02; I 1.71; M 3.89; L 2.39; A 2.49; G 2.19; F 2.37; K 2.33; H 1.62
T12: P 2.05; N 2.4; V 1.51; M 1.48; Q 1.56; L 1.64; E 3.19; H 1.58; I 1.89; S 1.78; K 2.15; R 2.04; D 2.38; A 3.14; Y 2.47
G5: Q 2.37; R 1.66; V 2.39; T 2.46; Y 3.35; S 2.54; N 2.34; A 1.81; L 1.53; I 1.64; C 2.57; F 2.62; D 2.74; H 2.42
S9: P 2.05; D 2.99; A 4.78; M 2.28; C 2.17; E 2.2; L 2.43; T 1.92; F 2.88; H 1.67; G 2.76; N 2.06
P6: D 2.08; M 3.4; N 1.07; T 1.42; C 1.72; E 1.85
V18: K 3.26; F 2.61; H 1.81; R 1.94; P 2.59; T 2.02; E 1.01; I 2.32; Y 1.94; Q 2.31; M 1.92; A 1.61; L 1.79; N 2.55; D 2.53; W 1.74
G13: K 1.91; F 2.15; P 1.81; A 1.86; D 3.13; V 1.81; H 1.99; N 2.41; S 1.76; R 2.6; T 2.16; I 1.14; Y 4.09; Q 1.55; E 2.76; M 1.45
V8: H 2.58; I 2.54; Q 2.25; W 3.04; T 1.42; D 3.27; R 1.83; S 3.41; M 2.38; G 1.96; N 2.03; P 2.07; C 2.04
Q3: F 2.34; M 3.03; T 1.94; D 1.83; E 2.51; K 2.54; L 1.84; W 1.51; P 1.34; A 2.01; R 1.48; G 1.73; S 2.48; I 1.58; N 1.24; H 2.04; Y 1.73
L16: H 2.81; T 3.25; S 1.75; F 2.37; C 2.08; R 3.09; V 2.33; M 2.29; E 3.65; Q 2.81; N 3.04; A 1.96; Y 1.99; W 2.35; K 2.27; P 3.02; I 1.4; D 3.53; G 2.52
T2: K 1.72; S 2.71; R 1.75; Y 2.53; Q 2.35; C 2.96; D 2.97; F 3.05; W 1.43; L 2.25; A 1.92; E 3.58; I 2.01; N 2.17
I7: C 1.89; P 2.78; R 2.08; M 1.78; H 2.66; L 1.18; G 1.79; N 2.73; S 2.52; T 2.36; Q 1.98; E 2.63; A 2.25; D 3.31
E17: A 1.03; P 2.05; R 5.49; N 3.09; G 2.09; F 3.92; Y 3.5; Q 2.94; S 2.15; C 1.84; D 1.91; V 1.24; K 2.41
S4: Y 2.24; T 2.82; N 1.85; E 2.3; G 2.01; A 2.37; C 1.48; L 2.78; H 1.91; I 3.66; P 2; Q 2.35; K 1.88

Variants of: B2
Assay: as above
Conditions: c terminus: a fixed tail appended

Protein stability index: each site, then its substitutions
K24: H 1.86; P 1.17; V 1.46; Q 1.23; F 1.77; E 1.95; S 1.38; Y 1.86; T 1.34; N 1.43; D 1.83; R 2.59; C 2.24; G 2.4; L 1.99; I 2.5; W 1.24; A 1.91; M 1.78
K22: V 1.55; E 1.87; C 1.65; D 1.8; H 1.57; S 1.42; A 2.4; I 1.71; G 1.83; Q 1.67; P 1.93; F 1.84; N 2.29; L 1.97; W 1.46; T 2.3; Y 1.49; M 2.34; R 2.41
K21: E 1.39; I 1.41; L 2.2; H 2.68; M 1.28; P 2.17; Y 1.56; T 2.11; W 2.48; N 1.77; S 1.56; Q 2.66; V 3.01; G 2.17; D 2.14; F 2.74
S23: T 1.67; D 1.72; H 1.67; L 2.59; F 2.09; M 1.82; P 1.37; N 1.64; Q 2.22; C 2.27; Y 2.83; K 2.31; A 1.64; V 1.33; G 1.68; E 1.7; I 1.76
